{"source": "patent US20250099540A1", "about": "(INSERM INSTITUT NATIONAL DE LA SANT ET DE LA RECHERCHE M …, published 2025)", "molecular_target": "T1, purified integrin αIIbβ3 (R&D Systems #7148-A2-025) (UniProt P08514 32-993; P05106 27-718)", "T1 construct": "One protein preparation was tested in two states; also called GPIIb-IIIa; CD41/CD61", "experiment": "SPR single-cycle kinetics, sEng-Strep on SA chip, activated Ca2+/Mn2+-loaded integrin as analyte, 25° C.; apparent value; activated Ca2+/Mn2+-loaded integrin αIIbβ3 as analyte", "procedure": "The association between sEng-Strep-tag® II and integrin αIIbβ3 was analyzed by surface plasmon resonance (SPR) on a streptavidin (SA) biosensor (Cytiva) at 25° C. First, we immobilized resonance units (RU) of sEng-Strep-tag® II onto the test flow cell of a SA chip through the C-terminal StrepII-tag to provide a sEng concentration on the surface of ˜10 μM. The reference flow cell was not modified. […] Polysorbate 20 (PS20), either supplemented with 1 mM MnCl2 and 1 mM CaCl2 or after extensive dialysis against EDTA to remove residual divalent cations in the protein preparation. Integrin αIIbβ3 (25 μg per experiment) was resuspended to 0.2 mg/ml (˜1 μM) in the appropriate running buffer before use. Analysis was performed with the BiaEvaluation version 3.0.2 software (Cytiva) and the Anabel webserver.\nTo investigate this interaction, we analyzed the association between sEng-Strep-tag® II (sEng-Strep) and integrin αIIbβ3 by surface plasmon resonance (SPR) on a streptavidin (SA) biosensor (Cytiva) at 25° C. using single-cycle kinetics. When non-activated integrin αIIbβ3 was flowed over surface-immobilized sEng-Strep, no binding was detected (FIG. 5).", "data": [{"binder": "sEng-Strep-tag II (streptavidin-tagged construct of soluble endoglin) (receptor, human, UniProt P17813 26-586, looked up, extracellular domain; Immobilised on a streptavidin (SA) chip through the C-terminal StrepII-tag; not shown: C-terminal Strep-tag II) ETVHCDLQPVGPERGEVTYTTSQVSKGCVAQAPNAILEVHVLFLEFPTGPSQLELTLQASKQNGTWPREVLLVLSVNSSVFLHLQALGIPLHLAYNSSLVTFQEPPGVNTTELPSFPKTQILEWAAERGPITSAAELNDPQSILLRLGQAQGSLSFCMLEASQDMGRTLEWRPRTPALVRGCHLEGVAGHKEAHILRVLPGHSAGPRTVTVKVELSCAPGDLDAVLILQGPPYVSWLIDANHNMQIWTTGEYSFKIFPEKNIRGFKLPDTPQGLLGEARMLNASIVASFVELPLASIVSLHASSCGGRLQTSPAPIQTTPPKDTCSPELLMSLIQTKCADDAMTLVLKKELVAHLKCTITGLTFWDPSCEAEDRGDKFVLRSAYSSCGMQVSASMISNEAVVNILSSSSPQRKKVHCLNMDSLSFQLGLYLSPHFLQASNTIEPGQQSFVQVRVSPSVSEFLLQLDSCHLDLGPEGGTVELIQGRAAKGNCVSLLSPSPEGDPRFSFLLHFYTVPIPKTGTLSCTVALRPKTGSQDQEVHRTVFMRLNIISPDLSGCTSKG", "values": [{"measurement": "Kd", "value": "< 9", "unit": "nM"}, {"measurement": "koff", "value": "< 0.008", "unit": "s⁻¹"}]}]}
